The text below walks through data of patent publication US20180327495A1.

This assay has as its target Trop-2 (EGP-1) (human) (UniProt P09758). The assay is described as follows: cell-based or functional assay.

Sequence of Trop-2 (EGP-1) (human) (P09758 27-323): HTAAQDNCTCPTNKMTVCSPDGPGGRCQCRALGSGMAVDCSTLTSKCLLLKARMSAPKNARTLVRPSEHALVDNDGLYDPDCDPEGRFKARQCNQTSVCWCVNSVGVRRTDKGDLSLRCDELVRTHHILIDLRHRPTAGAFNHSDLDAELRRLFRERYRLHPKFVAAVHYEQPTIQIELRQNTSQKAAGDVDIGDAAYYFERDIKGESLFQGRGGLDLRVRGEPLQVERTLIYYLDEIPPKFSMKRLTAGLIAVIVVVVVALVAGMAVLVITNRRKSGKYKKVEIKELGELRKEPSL

On to “hRS7 (anti-EGP-1 / anti-Trop-2 humanized MAb), unconjugated IgG (antibody)”, for which the ADCC, specific lysis (PBMC effectors, effector to target ratio 100:1, antibody at 33.3 nM) is 8.5%.
